Experiments:
Experiment in all cases: SEC; gel permeation chromatography on Superdex-200, purified receptors-Fc loaded in 400 µl, eluted in PBS, absorbance at 280 nm
[1] = target: atacicept
[2] = target: hFn14-Fc (human) (UniProt Q9NP84)
[3] = target: hTACI-Fc

## atacicept (Fc fusion)
[1]
  stoichiometry N: 2

## hFn14-Fc (from UniProt Q9NP84 28-80) (Fc fusion)
[2]
  stoichiometry N: 2

## hTACI-Fc (Fc fusion)
[3]
  stoichiometry N: 2
